# Experimental data as given in doi:10.1101/2023.06.26.546551, “Unmasking Crucial Residues in Adipose Triglyceride Lipase (ATGL) for Co-Activation with Comparative Gene Identification-58 (CGI-58)” (bioRxiv, 2023).
# T1: smt3-mATGL288-StrepII (mouse adipose triglyceride lipase truncated after D288), wild type (mouse, UniProt Q8BJ56 1-288)
# T1 sequence (looked up): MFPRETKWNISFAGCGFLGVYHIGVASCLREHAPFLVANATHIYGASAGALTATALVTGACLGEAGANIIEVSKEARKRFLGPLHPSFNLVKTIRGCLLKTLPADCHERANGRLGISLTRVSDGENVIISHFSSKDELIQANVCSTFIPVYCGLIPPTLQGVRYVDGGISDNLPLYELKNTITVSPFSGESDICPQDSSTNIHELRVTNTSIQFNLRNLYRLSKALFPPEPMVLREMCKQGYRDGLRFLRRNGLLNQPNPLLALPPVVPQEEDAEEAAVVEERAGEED
# T2: smt3-mATGL288-StrepII N209A (mouse, UniProt Q8BJ56 1-288, N209A)
# T2 sequence (looked up): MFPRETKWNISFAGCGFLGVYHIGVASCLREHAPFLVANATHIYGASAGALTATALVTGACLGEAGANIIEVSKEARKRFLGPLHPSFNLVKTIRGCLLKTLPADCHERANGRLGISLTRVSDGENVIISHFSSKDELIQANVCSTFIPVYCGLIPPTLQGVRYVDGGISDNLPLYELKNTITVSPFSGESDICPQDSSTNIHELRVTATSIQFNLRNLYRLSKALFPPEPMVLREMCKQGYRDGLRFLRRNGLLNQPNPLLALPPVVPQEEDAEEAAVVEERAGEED
# T3: smt3-mATGL288-StrepII I212A (mouse, UniProt Q8BJ56 1-288, I212A)
# T3 sequence (looked up): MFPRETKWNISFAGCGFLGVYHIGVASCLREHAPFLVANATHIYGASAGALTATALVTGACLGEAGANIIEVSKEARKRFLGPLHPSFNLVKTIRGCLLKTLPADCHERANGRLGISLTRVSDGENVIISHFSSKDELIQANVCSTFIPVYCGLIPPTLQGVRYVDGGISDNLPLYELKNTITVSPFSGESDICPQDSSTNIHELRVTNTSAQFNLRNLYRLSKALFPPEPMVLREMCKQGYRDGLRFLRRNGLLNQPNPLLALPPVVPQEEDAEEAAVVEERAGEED
# T4: smt3-mATGL288-StrepII I212S (mouse, UniProt Q8BJ56 1-288, I212S)
# T4 sequence (looked up): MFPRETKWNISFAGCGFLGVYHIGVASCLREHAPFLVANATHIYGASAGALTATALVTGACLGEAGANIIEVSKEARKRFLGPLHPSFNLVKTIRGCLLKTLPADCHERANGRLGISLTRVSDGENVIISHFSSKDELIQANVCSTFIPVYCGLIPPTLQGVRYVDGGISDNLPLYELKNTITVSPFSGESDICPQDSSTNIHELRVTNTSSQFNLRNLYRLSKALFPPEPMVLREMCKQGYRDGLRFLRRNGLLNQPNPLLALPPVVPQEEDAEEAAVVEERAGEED
# T5: smt3-mATGL288-StrepII N215A (mouse, UniProt Q8BJ56 1-288, N215A)
# T5 sequence (looked up): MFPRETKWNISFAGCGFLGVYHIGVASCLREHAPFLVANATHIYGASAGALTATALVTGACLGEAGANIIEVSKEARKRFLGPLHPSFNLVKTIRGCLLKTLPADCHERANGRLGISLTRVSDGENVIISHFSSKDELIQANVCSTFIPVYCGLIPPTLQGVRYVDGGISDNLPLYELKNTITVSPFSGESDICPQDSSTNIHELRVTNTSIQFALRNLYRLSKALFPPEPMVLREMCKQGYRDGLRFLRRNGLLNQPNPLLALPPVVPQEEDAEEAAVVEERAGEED
# B1: smt3-mCGI-58-His6 (mouse comparative gene identification-58) (natural protein, UniProt Q9DBL9 1-351, looked up)
# chain: MKAMAAEEEVDSADAGGGSGWLTGWLPTWCPTSTSHLKEAEEKMLKCVPCTYKKEPVRISNGNRIWTLMFSHNISSKTPLVLLHGFGGGLGLWALNFEDLSTDRPVYAFDLLGFGRSSRPRFDSDAEEVENQFVESIEEWRCALRLDKMILLGHNLGGFLAAAYSLKYPSRVSHLILVEPWGFPERPDLADQERPIPVWIRALGAALTPFNPLAGLRIAGPFGLSLVQRLRPDFKRKYSSMFEDDTVTEYIYHCNVQTPSGETAFKNMTIPYGWAKRPMLQRIGGLHPDIPVSVIFGARSCIDGNSGTSIQSLRPKSYVKTIAILGAGHYVYADQPEEFNQKVKEICHTVD
# Legend:
# Test in all cases: cell-based or functional assay
# [1] = target: T1, smt3-mATGL288-StrepII (mouse adipose …)
# [2] = target: T2, smt3-mATGL288-StrepII N209A
# [3] = target: T3, smt3-mATGL288-StrepII I212A
# [4] = target: T4, smt3-mATGL288-StrepII I212S
# [5] = target: T5, smt3-mATGL288-StrepII N215A
binder,measurement,setting,value
B1,"EC50 of mCGI-58 for co-activation of the TG hydrolase activity of mATGL288 (25 ug bacterial lysate, purified mCGI-58 up to 2300 nM)",[1],178 nM
same,"EC50 of mCGI-58 for co-activation of the TG hydrolase activity of mATGL288 N209A (25 ug bacterial lysate, purified mCGI-58 up to 2300 nM)",[2],~500 nM
same,"EC50 of mCGI-58 for co-activation of the TG hydrolase activity of mATGL288 I212A (25 ug bacterial lysate, purified mCGI-58 up to 2300 nM)",[3],~500 nM
same,"EC50 of mCGI-58 for co-activation of the TG hydrolase activity of mATGL288 I212S (25 ug bacterial lysate, purified mCGI-58 up to 2300 nM)",[4],~200 nM
same,"EC50 of mCGI-58 for co-activation of the TG hydrolase activity of mATGL288 N215A (25 ug bacterial lysate, purified mCGI-58 up to 2300 nM)",[5],~200 nM
